B1: scFv; the commonest letter at each place (parent)
chain 1: EVKLDETGGGLVQPGRPMKLSCVASGFTFSDYWMNWVRQSPEKGLEWVAQIRNKPYNYETYYSDSVKGRFTISRDDSKSSVYLQMNNLRVEDMGIYYCTGSYYGMDYWGQGTSVTVS
chain 2: DVVMTQTPLSLPVSLGDQASISCRSSQSLVHSNGNTYLRWYLQKPGQSPKVLIYKVSNRFSGVPDRFSGSGSGTDFTLKISRVEAEDLGVYFCSQSTHVPWTFGGGTKLEIK

Tests used:
fluorescein = variants of: B1; experiment: Kd (Tite-Seq); conditions: with fluorescein; format: scFv 4-4-20, heavy + light
[1] = variants of: B1; experiment: yeast surface expression (ratio to wild type); higher = more expressed; conditions: format: scFv 4-4-20, heavy + light

Row | Variant | Kd (fluorescein) [µM] | yeast surface expression [1]
1 | chain 1 V37W | 9.02 | 0.746
2 | chain 1 V37C | ≤ 0.000316 | 0.926
3 | chain 1 F29Q S30Q | 0.0146 | 0.966
4 | chain 1 G100N S101I | ≥ 10 | 0.189
5 | chain 1 M105C G109V | ≥ 10 | 0.171
6 | chain 1 F29I W33H | ≥ 10 | 0.763
7 | chain 1 S101L Y103Q | ≥ 10 | 0.786
8 | chain 1 D31C N35Y | ≥ 10 | 0.763
9 | chain 1 G104C Y107F | ≥ 10 | 0.291
10 | chain 1 T28Q Y32S | 0.0896 | 0.926
11 | chain 1 S101N G109N | ≥ 10 | 0.267
12 | chain 1 S30P N35V | ≥ 10 | 0.636
13 | chain 1 G100M G104P D106I | ≥ 10 | 0.361
14 | chain 1 M105W Y107C | ≥ 10 | 0.264
15 | chain 1 M34I V37Q | 0.00184 | 0.474
16 | chain 1 D106N W108K | ≥ 10 | 0.446
17 | chain 1 G100K D106V | ≥ 10 | 0.171
18 | chain 1 G100I Y102M | ≥ 10 | 1.08
19 | chain 1 T28W S30G Y32K | 1.55 | 0.576
20 | chain 1 G109K | ≥ 10 | 0.229
21 | chain 1 G109H | ≥ 10 | 0.268
22 | chain 1 T28D D31L | 0.000804 | 0.935
23 | chain 1 T28S W33S | ≥ 10 | 0.919
24 | chain 1 S101Y Y102G | ≥ 10 | 0.796

Row | Variant | Kd (fluorescein) [µM] | yeast surface expression [1]
25 | chain 1 D31K Y32G | 0.0729 | 0.879
26 | chain 1 T28H W36G | ≥ 10 | 2.76
27 | chain 1 T28W F29R | ≥ 10 | 0.615
28 | chain 1 G100K W108H | ≥ 10 | 0.249
29 | chain 1 S30N W36N | ≥ 10 | 0.265
30 | chain 1 T28W S30A | 0.00444 | 0.868
31 | chain 1 T28G N35C | ≥ 10 | 0.586
32 | chain 1 G100C Y102A | 0.00279 | 1.47
33 | chain 1 M105A Y107M | ≥ 10 | 0.661
34 | chain 1 F29C W33E | ≥ 10 | 0.556
35 | chain 1 F29E N35T | ≥ 10 | 0.578
36 | chain 1 T28F F29R | ≥ 10 | 0.797
37 | chain 1 T28K S30H | 0.00142 | 0.814
38 | chain 1 F29V M34E | ≥ 10 | 0.715
39 | chain 1 G100E Y107H | ≥ 10 | 0.501
40 | chain 1 T28D D31E V37E | ≥ 10 | 0.567
41 | chain 1 G104Q G109M | ≥ 10 | 0.0981
42 | chain 1 F29Y Y32H | 0.205 | 0.756
43 | chain 1 F29Y Y32R | ≥ 10 | 0.761
44 | chain 1 S30Y Y32P | ≥ 10 | 0.691
45 | chain 1 G100F W108A | ≥ 10 | 0.671
46 | chain 1 S101C G109A | ≥ 10 | 0.363
47 | chain 1 M34Y W36V | ≥ 10 | 0.522
48 | chain 1 S30D M34F | 0.00142 | 1.22

Row | Variant | Kd (fluorescein) [µM] | yeast surface expression [1]
49 | chain 1 T28V F29Q | 0.004 | 0.917
50 | chain 1 S30C M34V | 0.00827 | 0.65
51 | chain 1 G100Q Y103R D106L | ≥ 10 | 0.235
52 | chain 1 F29T D31P | ≥ 10 | 1.06
53 | chain 1 G104Q Y107G W108I | ≥ 10 | 0.271
54 | chain 1 S101I G104K | ≥ 10 | 0.482
55 | chain 1 G100Q G109E | ≥ 10 | 0.304
56 | chain 1 M34I N35W | ≥ 10 | 0.41
57 | chain 1 D106W Y107L | ≥ 10 | 0.308
58 | chain 1 G100L S101K | ≥ 10 | 0.461
59 | chain 1 F29E | ≥ 10 | 0.778
60 | chain 1 F29V | 0.00967 | 0.929
61 | chain 1 T28W V37C | 0.00128 | 0.75
62 | chain 1 S101F M105G | ≥ 10 | 0.559
63 | chain 1 F29I W33M V37P | ≥ 10 | 0.444
64 | chain 1 G100W G104L W108M | ≥ 10 | 0.108
65 | chain 1 W33H | ≥ 10 | 0.765
66 | chain 1 F29Y D31P | ≥ 10 | 0.888
67 | chain 1 S101Q | ≥ 10 | 0.788
68 | chain 1 G100S Y103L W108N | ≥ 10 | 0.26
69 | chain 1 T28I D31F | 0.00166 | 0.526
70 | chain 1 D31Q Y32R V37Q | ≥ 10 | 0.133
71 | chain 1 N35A W36P | ≥ 10 | 0.663
72 | chain 1 M105Q G109H | ≥ 10 | 0.299

Now from value to variant, other results behind:

Row | Kd (fluorescein) [µM] | Variant | yeast surface expression [1]
73 | ≥ 10 | chain 1 Y102N D106E | 1.27
74 | 0.000846 | chain 1 Y102E W108I | 0.763
75 | 0.0011 | chain 1 Y103V W108Y | 0.619
76 | ≥ 10 | chain 1 W108E G109K | 0.403
77 | ≥ 10 | chain 1 W108E G109T | 0.269
78 | ≥ 10 | chain 1 Y103H D106H | 0.611
79 | ≥ 10 | chain 1 W33I N35Y V37C | 0.443
80 | 0.00546 | chain 1 Y103R Y107F | 0.936
81 | ≥ 10 | chain 1 Y32G W33A | 0.708
82 | ≥ 10 | chain 1 Y103L G109M | 0.208
83 | ≥ 10 | chain 1 Y32D | 1.04
84 | ≥ 10 | chain 1 Y107N G109P | 0.28
85 | ≥ 10 | chain 1 Y103I G109V | 0.222
86 | 4.14 | chain 1 Y102N Y103C | 0.692
87 | ≥ 10 | chain 1 Y103N G104P | 0.478
88 | ≥ 10 | chain 1 W108A G109H | 0.356
89 | ≥ 10 | chain 1 W108A G109C | 0.197
90 | ≥ 10 | chain 1 Y102F M105C W108T | 0.419
91 | ≥ 10 | chain 1 Y102Q Y103E | 0.977
92 | ≥ 10 | chain 1 Y103C G109A | 0.397
93 | 0.000604 | chain 1 Y102D W108M | 0.926
94 | ≥ 10 | chain 1 Y32K M34C | 0.91

Row | Kd (fluorescein) [µM] | Variant | yeast surface expression [1]
95 | ≥ 10 | chain 1 Y32L M34T W36I | 0.622
96 | 7.33 | chain 1 Y107A | 1
97 | ≥ 10 | chain 1 Y107G | 0.544
98 | ≥ 10 | chain 1 W33T N35D V37W | 0.582
99 | ≥ 10 | chain 1 W33N M34D | 0.567
100 | ≥ 10 | chain 1 Y103I D106L | 0.354
101 | ≥ 10 | chain 1 Y102N G104I | 0.859
102 | ≥ 10 | chain 1 Y32V M34Q | 0.849
103 | ≥ 10 | chain 1 Y102V M105H G109V | 0.276
104 | ≥ 10 | chain 1 Y102E M105P | 0.839
105 | ≥ 10 | chain 1 Y103E Y107V | 1.07
106 | ≥ 10 | chain 1 Y102H Y107K | 1.05
107 | ≥ 10 | chain 1 W108L G109R | 0.296
108 | ≥ 10 | chain 1 W33R | 0.877
109 | ≥ 10 | chain 1 W33P | 0.803
110 | ≥ 10 | chain 1 W33S | 0.845
111 | 0.61 | chain 1 Y102L | 0.974
112 | ≥ 10 | chain 1 Y32T W36R | 0.193
113 | ≥ 10 | chain 1 Y32I W36G | 0.465
114 | ≥ 10 | chain 1 Y103I W108S | 0.397
115 | ≥ 10 | chain 1 Y103T D106R | 0.311
